Where “and” joins values, the source holds several entries; their conditions need not be identical. Identical values can stand only once.
What was measured:
human CCR8 [1] = target: T1, human CCR8 (human, UniProt P51685 1-355); experiment: flow cytometry, human activated T cells
T1 construct: the cells are named under assay; also called hCCR8
Description: (§1) Briefly, 1·10⁵ cells per well in a 96 well plate were incubated with a dilution of unconjugated anti-CCR8 mAb at 10 μg/mL then diluted at 1/3.33, 4 dilution points (during 30 min at 4° C.). […] To determine EC50 value, 8 concentrations of anti-CCR8 mAb were tested. Unbound antibodies were washed away with PBS (Invitrogen by Thermofisher Scientific, Illkirch-Graffenstaden, France) supplemented by 2% Fetal Bovine Serum (Invitrogen by Thermofisher Scientific, Illkirch-Graffenstaden, France) and 2 mM EDTA (Invitrogen by Thermofisher Scientific, Illkirch-Graffenstaden, France). Subsequently, cells are centrifuged (5 min at 400 g) and bound antibody is detected with F(ab′)₂-Goat anti-Mouse IgG (H+L) Cross-Adsorbed Secondary Antibody, Alexa Fluor 488 (dilution 1/500) (Invitrogen by Thermofisher Scientific, Illkirch-Graffenstaden, France) or with F(ab′)₂-Goat anti-Human IgG Fc Secondary Antibody, PE (Invitrogen by Thermofisher Scientific, Illkirch-Graffenstaden, France) (dilution 1/1000) at 4° C. for 30 min. Detection reagent is washed away and cells are centrifuged (5 min at 400 g) and resuspended in 30 μL PBS. Bound detection antibody is quantified on a MacsQuant16 (Miltenyi, Gladbach, Germany) (B1 or B2 channel, 5000 events per acquisition).
(§2) Binding characteristics of anti-CCR8 mAb cellular reactivity was further investigated by testing their binding to activated T cells.

human CCR8 [2] = target: T1, human CCR8; experiment: competition HTRF on HEK-293 cells with hCCR8; blocked ligand CCL1-AF647 [cont.]
human CCR8 [3] = target: T1, human CCR8; experiment: cell-based or functional assay
human CCR8 [4] = target: T1, human CCR8; experiment: flow cytometry, human activated T cells pre-incubated with 200 nM hCCL1
Description: as §1, §2

CCR8 SNAP-tag = CCR8 SNAP-tag (human, UniProt P51685 1-355, SNAP-tag labelled with Lumi4-Terbium); experiment: cell-based or functional assay
human CCR8 [5] = target: T1, human CCR8; experiment: flow cytometry, HUT78 cells (native CCR8)
Description: The same staining protocol was applied on human CCR8 transfected CHO cell line versus wild type CHO cell line, cutaneous T cell lymphoma HUT78 cell line and human activated T cell model.
as §1

human CCR8 [6] = target: T1, human CCR8; experiment: cell-based or functional assay; remark: listed apart in the source
pm4 [7] = target: T2, pm4 (human, sulfated tyrosine(s) among Tyr 15, Tyr 16, Tyr 17; marked only by underlining, lost in the text); experiment: ELISA on coated peptide
T2 sequence (peptide, as listed by the source): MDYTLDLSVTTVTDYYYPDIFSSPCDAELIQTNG
Description: (§3) The specific binding properties of antibodies were evaluated by ELISA with coated CCR8 related peptides (500 ng/mL) in carbonate/bicarbonate buffer. Different peptides were used as described in Table 1 (see Example 1). Each anti-CCR8 mAb was tested at 1 μg/mL then diluted at 1/10. After an incubation at room temperature during 90 min, unbound mAbs were removed by washings. […] After washings, 3,3′,5,5′-tetramethylbenzidine (TMB) (Interchim, Montlugon, France) was added for 15 min. Then the optical density (OD) was determined by using a multiplate reader (Tecan, Lyon, France) and correlated with mAb reactivity on the panel of coated peptides.

pm1 [8] = target: T3, pm1 (human, sulfated tyrosine(s) among Tyr 15, Tyr 16, Tyr 17; marked only by underlining, lost in the text); experiment: ELISA on coated peptide
T3 sequence (peptide, as listed by the source): as above
Description: as §3

pm6 = pm6 (human, sulfated tyrosines at Y16 and Y17); experiment: ELISA on coated peptide [cont.]
Chain of pm6 (human, sulfated tyrosines at Y16 and Y17) (peptide, as listed by the source): as above
Procedure, shortened: (§4)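 Anti-CCR8 mAbs tested at 1 μg/mL and then diluted 1/10 on CCR8-related peptides coated at 500 ng/mL in carbonate/bicarbonate buffer, 90 min at room temperature. Bound antibody developed with TMB for 15 min; optical density read as mAb reactivity.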

pm3 = pm3 (human, sulfated tyrosine at Y17); experiment: ELISA on coated peptide [cont.]
Chain of pm3 (human, sulfated tyrosine at Y17) (peptide, as listed by the source): as above
Procedure, shortened: as §4

pm8 = pm8 (human, sulfated tyrosines at Y15, Y16 and Y17); experiment: ELISA on coated peptide [cont.]
Chain of pm8 (human, sulfated tyrosines at Y15, Y16 and Y17) (peptide, as listed by the source): as above
Procedure, shortened: as §4

pm5 = pm5 (human, sulfated tyrosines at Y15 and Y17); experiment: ELISA on coated peptide [cont.]
Chain of pm5 (human, sulfated tyrosines at Y15 and Y17) (peptide, as listed by the source): as above
Procedure, shortened: as §4

human CCR8 [9] = target: T1, human CCR8; experiment: flow cytometry, hCCR8 transfected CHOK1 cells
human CCR8 [10] = target: T1, human CCR8; experiment: competition flow cytometry on hCCR8 transfected CHO cells; blocked ligand CCL1-AF647
human CCR8 [11] = target: T1, human CCR8; experiment: cell-based or functional assay; remark: listed apart in the source
pm4 [12] = target: T2, pm4; experiment: ELISA on coated peptide [cont.]
Procedure, shortened: as §4

pm2 = pm2 (human, sulfated tyrosine(s) among Tyr 15, Tyr 16, Tyr 17; marked only by underlining, lost in the text); experiment: ELISA on coated peptide [cont.]
Chain of pm2 (human, sulfated tyrosine(s) among Tyr 15, Tyr 16, Tyr 17; marked only by underlining, lost in the text) (peptide, as listed by the source): as above
Procedure, shortened: as §4

pm1 [13] = target: T3, pm1; experiment: ELISA on coated peptide [cont.]
Procedure, shortened: as §4

pwt1 = target: T4, pwt1 (human); experiment: ELISA on coated peptide [cont.]
T4 construct: also called unmodified peptide
T4 sequence (peptide, as listed by the source): as above
Procedure, shortened: as §4

IC50 (read off the curve) (human CCR8 [2]) [µg/mL]	IC50 (Gi2 BRET, pH 6.5) (human CCR8 [3])	IC50 (Gi2 BRET, pH 7.4) (human CCR8 [3])	% of internalization at 1 µg/ml mAb (HTRF) (CCR8 SNAP-tag) [%]	% of internalization at 10 µg/ml mAb (HTRF) (CCR8 SNAP-tag) [%]	% of labelled cells (human CCR8 [5]) [%]	hCCL1 (100 nM) residual response, Protocol #2, mAb 0.08 µg/mL (human CCR8 [6]) [%]	hCCL1 (100 nM) residual response, Protocol #2, mAb 0.4 µg/mL (human CCR8 [6]) [%]	hCCL1 (100 nM) residual response, Protocol #2, mAb 10 µg/mL (human CCR8 [6]) [%]	hCCL1 (100 nM) residual response, Protocol #3, mAb 0.05 µg/mL (human CCR8 [6]) [%]	hCCL1 (100 nM) residual response, Protocol #3, mAb 0.5 µg/mL (human CCR8 [6]) [%]	hCCL1 (100 nM) residual response, Protocol #3, mAb 5 µg/mL (human CCR8 [6]) [%]	binding result (pm6)	binding result (pm3)	binding result (pm8)	binding result (pm5)	Binder	other results
~0.2	0.077 µg/ml and 0.514 nM	0.068 µg/ml and 0.452 nM	139	52	97	94	77	31	110	76	33	binds	binds	binds	binds	3-79 (antibody, human IgG1, kappa, V domains shown, humanized, human IgG1 kappa) VH: EVQLLESGGGLVQPGGSLRLSCAASGFTFNAYAMNWVRQAPGKGLEWVARIRSKSNDYATYYGDSVKGRFTISRDNSKNTLYLQMNSLRAEDTAVYYCVRGREAYYRYDGGYYAMDVWGQGTTVTVSS VL: DIVMTQSPLSLPVTPGEPASISCRSSKSLLHSNGNTYLYWFLQKPGQSPQLLIYRVSNLASGVPDRFSGSGSGTDFTLKISRVEAEDVGVYYCMQHREYPFTFGQGTKLEIKR	% of labelled cells (human CCR8 [1]): 92%; % of labelled cells (human CCR8 [4]): 92%; binding result (pm4 [7]): binds; binding result (pm1 [8]): binds
			126	111												Ref #1 (antibody, human IgG1, V domains shown, benchmark from WO 2021/260210; human IgG1, produced in CHO; also called TPP-21360) VH: EVQLLESGGGLVQPGGSLRLSCAASGFTFSSYGMHWVRQAPGKGLEWVSAINWNGGSTGYADSVKGRFTISRDNSKNTLYLQMNSLRAEDTAVYYCARGHHSGYDGRFFDYWGQGTLVTVSS VL: QSVLTQPPSVSGAPGQRVTISCTGSSSNIGAGYNVHWYQQLPGTAPKLLIYTNNRRPSGVPDRFSGSKSGTSASLAISGLRSEDEADYYCAAWDASLSGWVFGGGTKLTVL	% positive cells (human CCR8 [9]): 75.1%; MFI fold change to isotype ctrl (human CCR8 [9]): 8.7 fold; IC50 (read off the curve) (human CCR8 [10]): ~0.7 µg/mL
~0.03	0.011 µg/ml and 0.072 nM	0.022 µg/ml and 0.148 nM	44	29	96	67	55	32	86	60	42	binds	binds	binds	binds	3-80 (antibody, human IgG1, kappa, V domains shown, humanized, human IgG1 kappa) VH: QVQLVQSGPEVVKPGASVKVSCKTSGYTFTEYTIHWVRQAPGQSLEWVGGINPNNGNTRYDQKFQGRVTITRDKSASTAYMELRSLTSEDTAVYYCARVARSSGSGPYAMDYWGQGTTVTVSS VL: DVVMTQSPLSLPVTLGDQASISCRCSQSLLHTNGDTYLHWYLQRPGQSPRLLIYKVSNRFSGVPDRFSGSGSGTDFTLKISRVEAEDVGVYFCSQSTHVPYTFGGGTKVEIKR	ADCC % Max lysis, NK cells Donor 3 (human CCR8 [11]): 15%; ADCC % Max lysis, NK cells Donor 4 (human CCR8 [11]): 16%; ADCC EC50, NK cells Donor 3 (human CCR8 [11]): 0.505 nM; ADCC EC50, NK cells Donor 4 (human CCR8 [11]): 0.573 nM; binding result (pm4 [12]): binds; binding result (pm2): binds; binding result (pm1 [13]): binds; binding result (pwt1): binds

— patent publication US20260234276A1 (DOMAIN THERAPEUTICS, published 2026)
